Assay results published in article PMC2168396 (The EMBO Journal, 2007).

Tests used:
SEC + other: NMR = biological target: the molecule itself; experiment: SEC + other: NMR
[1] = biological target: filamentous actin (F-actin) from rabbit skeletal muscle (rabbit, UniProt P68135 1-377); experiment: co-sedimentation

Row | Binder | stoichiometry N (SEC + other: NMR) | co-sedimentation pellet (% of WT) [1]
1 | talin 2300–2541 (C-terminal actin-binding domain, wild type) (domain or fragment, mouse, UniProt P26039 2300-2541, looked up) DPTVIAENELLGAAAAIEAAAKKLEQLKPRAKPKEADESLNFEEQILEAAKSIAAATSALVKAASAAQRELVAQGKVGAIPANALDDGQWSQGLISAARMVAAATNNLCEAANAAVQGHASQEKLISSAKQVAASTAQLLVACKVKADQDSEAMKRLQAAGNAVKRASDNLVKAAQKAAAFEDQENETVVVKEKMVGGIAQIIAAQEEMLRKERELEEARKKLAQIRQQQYKFLPSELRDEH | 2 | 100 ± 3 % of WT
2 | talin 2300–2541 D2447N (domain or fragment, mouse, UniProt P26039 2300-2541, looked up) DPTVIAENELLGAAAAIEAAAKKLEQLKPRAKPKEADESLNFEEQILEAAKSIAAATSALVKAASAAQRELVAQGKVGAIPANALDDGQWSQGLISAARMVAAATNNLCEAANAAVQGHASQEKLISSAKQVAASTAQLLVACKVKANQDSEAMKRLQAAGNAVKRASDNLVKAAQKAAAFEDQENETVVVKEKMVGGIAQIIAAQEEMLRKERELEEARKKLAQIRQQQYKFLPSELRDEH | 2 | 144 ± 8 % of WT
3 | talin 2300–2541 L2323A (domain or fragment, mouse, UniProt P26039 2300-2541, looked up) DPTVIAENELLGAAAAIEAAAKKAEQLKPRAKPKEADESLNFEEQILEAAKSIAAATSALVKAASAAQRELVAQGKVGAIPANALDDGQWSQGLISAARMVAAATNNLCEAANAAVQGHASQEKLISSAKQVAASTAQLLVACKVKADQDSEAMKRLQAAGNAVKRASDNLVKAAQKAAAFEDQENETVVVKEKMVGGIAQIIAAQEEMLRKERELEEARKKLAQIRQQQYKFLPSELRDEH | 2 | 127 ± 3 % of WT
4 | talin 2300–2541 R2526A (domain or fragment) DPTVIAENELLGAAAAIEAAAKKLEQLKPRAKPKEADESLNFEEQILEAAKSIAAATSALVKAASAAQRELVAQGKVGAIPANALDDGQWSQGLISAARMVAAATNNLCEAANAAVQGHASQEKLISSAKQVAASTAQLLVACKVKADQDSEAMKRLQAAGNAVKRASDNLVKAAQKAAAFEDQENETVVVKEKMVGGIAQIIAAQEEMLRKERELEEARKKLAQIAQQQYKFLPSELRDEH |  | 37 ± 9 % of WT
5 | talin 2300–2541 K2443D/V2444D/K2445D (domain or fragment, mouse, UniProt P26039 2300-2541, looked up) DPTVIAENELLGAAAAIEAAAKKLEQLKPRAKPKEADESLNFEEQILEAAKSIAAATSALVKAASAAQRELVAQGKVGAIPANALDDGQWSQGLISAARMVAAATNNLCEAANAAVQGHASQEKLISSAKQVAASTAQLLVACDDDADQDSEAMKRLQAAGNAVKRASDNLVKAAQKAAAFEDQENETVVVKEKMVGGIAQIIAAQEEMLRKERELEEARKKLAQIRQQQYKFLPSELRDEH | 2 | 27 ± 6 % of WT
6 | talin 2300–2541 L2515D (domain or fragment) DPTVIAENELLGAAAAIEAAAKKLEQLKPRAKPKEADESLNFEEQILEAAKSIAAATSALVKAASAAQRELVAQGKVGAIPANALDDGQWSQGLISAARMVAAATNNLCEAANAAVQGHASQEKLISSAKQVAASTAQLLVACKVKADQDSEAMKRLQAAGNAVKRASDNLVKAAQKAAAFEDQENETVVVKEKMVGGIAQIIAAQEEMLRKEREDEEARKKLAQIRQQQYKFLPSELRDEH |  | 36 ± 6 % of WT
7 | talin 2300–2541 I2316A (domain or fragment, mouse, UniProt P26039 2300-2541, looked up) DPTVIAENELLGAAAAAEAAAKKLEQLKPRAKPKEADESLNFEEQILEAAKSIAAATSALVKAASAAQRELVAQGKVGAIPANALDDGQWSQGLISAARMVAAATNNLCEAANAAVQGHASQEKLISSAKQVAASTAQLLVACKVKADQDSEAMKRLQAAGNAVKRASDNLVKAAQKAAAFEDQENETVVVKEKMVGGIAQIIAAQEEMLRKERELEEARKKLAQIRQQQYKFLPSELRDEH | 2 | 96 ± 9 % of WT
8 | talin 2300–2541 A2518D (domain or fragment) DPTVIAENELLGAAAAIEAAAKKLEQLKPRAKPKEADESLNFEEQILEAAKSIAAATSALVKAASAAQRELVAQGKVGAIPANALDDGQWSQGLISAARMVAAATNNLCEAANAAVQGHASQEKLISSAKQVAASTAQLLVACKVKADQDSEAMKRLQAAGNAVKRASDNLVKAAQKAAAFEDQENETVVVKEKMVGGIAQIIAAQEEMLRKERELEEDRKKLAQIRQQQYKFLPSELRDEH |  | 43 ± 10 % of WT
9 | talin 2300–2541 K2443D (domain or fragment, mouse, UniProt P26039 2300-2541, looked up) DPTVIAENELLGAAAAIEAAAKKLEQLKPRAKPKEADESLNFEEQILEAAKSIAAATSALVKAASAAQRELVAQGKVGAIPANALDDGQWSQGLISAARMVAAATNNLCEAANAAVQGHASQEKLISSAKQVAASTAQLLVACDVKADQDSEAMKRLQAAGNAVKRASDNLVKAAQKAAAFEDQENETVVVKEKMVGGIAQIIAAQEEMLRKERELEEARKKLAQIRQQQYKFLPSELRDEH | 2 | 43 ± 5 % of WT
10 | talin 2300–2541 D2385K/D2386N (domain or fragment, mouse, UniProt P26039 2300-2541, looked up) DPTVIAENELLGAAAAIEAAAKKLEQLKPRAKPKEADESLNFEEQILEAAKSIAAATSALVKAASAAQRELVAQGKVGAIPANALKNGQWSQGLISAARMVAAATNNLCEAANAAVQGHASQEKLISSAKQVAASTAQLLVACKVKADQDSEAMKRLQAAGNAVKRASDNLVKAAQKAAAFEDQENETVVVKEKMVGGIAQIIAAQEEMLRKERELEEARKKLAQIRQQQYKFLPSELRDEH | 2 | 113 ± 13 % of WT
11 | talin 2300–2541 R2526G (domain or fragment) DPTVIAENELLGAAAAIEAAAKKLEQLKPRAKPKEADESLNFEEQILEAAKSIAAATSALVKAASAAQRELVAQGKVGAIPANALDDGQWSQGLISAARMVAAATNNLCEAANAAVQGHASQEKLISSAKQVAASTAQLLVACKVKADQDSEAMKRLQAAGNAVKRASDNLVKAAQKAAAFEDQENETVVVKEKMVGGIAQIIAAQEEMLRKERELEEARKKLAQIGQQQYKFLPSELRDEH |  | 33 ± 5 % of WT
12 | talin 2300–2541 D2385K/D2386N/D2447N (domain or fragment, mouse, UniProt P26039 2300-2541, looked up) DPTVIAENELLGAAAAIEAAAKKLEQLKPRAKPKEADESLNFEEQILEAAKSIAAATSALVKAASAAQRELVAQGKVGAIPANALKNGQWSQGLISAARMVAAATNNLCEAANAAVQGHASQEKLISSAKQVAASTAQLLVACKVKANQDSEAMKRLQAAGNAVKRASDNLVKAAQKAAAFEDQENETVVVKEKMVGGIAQIIAAQEEMLRKERELEEARKKLAQIRQQQYKFLPSELRDEH | 2 | 138 ± 16 % of WT
13 | talin 2300–2541 I2316A/L2323A (domain or fragment, mouse, UniProt P26039 2300-2541, looked up) DPTVIAENELLGAAAAAEAAAKKAEQLKPRAKPKEADESLNFEEQILEAAKSIAAATSALVKAASAAQRELVAQGKVGAIPANALDDGQWSQGLISAARMVAAATNNLCEAANAAVQGHASQEKLISSAKQVAASTAQLLVACKVKADQDSEAMKRLQAAGNAVKRASDNLVKAAQKAAAFEDQENETVVVKEKMVGGIAQIIAAQEEMLRKERELEEARKKLAQIRQQQYKFLPSELRDEH | 2 | 135 ± 13 % of WT
14 | talin 2300–2541 L2309A (domain or fragment, mouse, UniProt P26039 2300-2541, looked up) DPTVIAENEALGAAAAIEAAAKKLEQLKPRAKPKEADESLNFEEQILEAAKSIAAATSALVKAASAAQRELVAQGKVGAIPANALDDGQWSQGLISAARMVAAATNNLCEAANAAVQGHASQEKLISSAKQVAASTAQLLVACKVKADQDSEAMKRLQAAGNAVKRASDNLVKAAQKAAAFEDQENETVVVKEKMVGGIAQIIAAQEEMLRKERELEEARKKLAQIRQQQYKFLPSELRDEH | 2 | 113 ± 3 % of WT
15 | talin 2300–2541 L2515D/A2518D (domain or fragment) DPTVIAENELLGAAAAIEAAAKKLEQLKPRAKPKEADESLNFEEQILEAAKSIAAATSALVKAASAAQRELVAQGKVGAIPANALDDGQWSQGLISAARMVAAATNNLCEAANAAVQGHASQEKLISSAKQVAASTAQLLVACKVKADQDSEAMKRLQAAGNAVKRASDNLVKAAQKAAAFEDQENETVVVKEKMVGGIAQIIAAQEEMLRKEREDEEDRKKLAQIRQQQYKFLPSELRDEH |  | 42 ± 7 % of WT
16 | talin 2300–2541 L2309A/L2323A (domain or fragment, mouse, UniProt P26039 2300-2541, looked up) DPTVIAENEALGAAAAIEAAAKKAEQLKPRAKPKEADESLNFEEQILEAAKSIAAATSALVKAASAAQRELVAQGKVGAIPANALDDGQWSQGLISAARMVAAATNNLCEAANAAVQGHASQEKLISSAKQVAASTAQLLVACKVKADQDSEAMKRLQAAGNAVKRASDNLVKAAQKAAAFEDQENETVVVKEKMVGGIAQIIAAQEEMLRKERELEEARKKLAQIRQQQYKFLPSELRDEH | 2 | 154 ± 7 % of WT
17 | talin 2300–2541 Q2388D (domain or fragment, mouse, UniProt P26039 2300-2541, looked up) DPTVIAENELLGAAAAIEAAAKKLEQLKPRAKPKEADESLNFEEQILEAAKSIAAATSALVKAASAAQRELVAQGKVGAIPANALDDGDWSQGLISAARMVAAATNNLCEAANAAVQGHASQEKLISSAKQVAASTAQLLVACKVKADQDSEAMKRLQAAGNAVKRASDNLVKAAQKAAAFEDQENETVVVKEKMVGGIAQIIAAQEEMLRKERELEEARKKLAQIRQQQYKFLPSELRDEH | 2 | 59 ± 5 % of WT
18 | talin 2300–2541 R2519A (domain or fragment) DPTVIAENELLGAAAAIEAAAKKLEQLKPRAKPKEADESLNFEEQILEAAKSIAAATSALVKAASAAQRELVAQGKVGAIPANALDDGQWSQGLISAARMVAAATNNLCEAANAAVQGHASQEKLISSAKQVAASTAQLLVACKVKADQDSEAMKRLQAAGNAVKRASDNLVKAAQKAAAFEDQENETVVVKEKMVGGIAQIIAAQEEMLRKERELEEAAKKLAQIRQQQYKFLPSELRDEH |  | 37 ± 3 % of WT
19 | talin 2300–2541 K2445D (domain or fragment, mouse, UniProt P26039 2300-2541, looked up) DPTVIAENELLGAAAAIEAAAKKLEQLKPRAKPKEADESLNFEEQILEAAKSIAAATSALVKAASAAQRELVAQGKVGAIPANALDDGQWSQGLISAARMVAAATNNLCEAANAAVQGHASQEKLISSAKQVAASTAQLLVACKVDADQDSEAMKRLQAAGNAVKRASDNLVKAAQKAAAFEDQENETVVVKEKMVGGIAQIIAAQEEMLRKERELEEARKKLAQIRQQQYKFLPSELRDEH | 2 | 48 ± 10 % of WT
